The values that follow come from article doi:10.1101/2021.10.06.463369.

The data set deals with T1, AITR6-His (Arabidopsis thaliana, UniProt Q9FGW7 1-302).
T1 sequence: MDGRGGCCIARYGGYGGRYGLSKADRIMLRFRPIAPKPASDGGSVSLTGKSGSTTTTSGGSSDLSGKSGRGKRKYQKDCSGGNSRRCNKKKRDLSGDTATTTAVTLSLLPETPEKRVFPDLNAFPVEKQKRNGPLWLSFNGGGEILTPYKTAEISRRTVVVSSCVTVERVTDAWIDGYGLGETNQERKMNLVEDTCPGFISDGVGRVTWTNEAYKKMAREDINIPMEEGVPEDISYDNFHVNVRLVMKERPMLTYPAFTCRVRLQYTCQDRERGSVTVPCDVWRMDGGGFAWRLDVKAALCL
Description: EMSA. For orientation: Mobility shift assays separate free from complexed probe on a gel.

B1: F16 (dsDNA)
DNA 1: ACTCATAAAATATGTCTTTGATTTTTTGTAGTAAT
DNA 2: ATTACTACAAAAAATCAAAGACATATTTTATGAGT
For B1, the binding result is given as “no binding”.
